This is an account of results in patent US20190241669A1 (published 2019).

First the molecules themselves.
B1: L1.LGF/L3.NY/H3.AP (antibody, V domains shown)
VH: EVQLLESGGGLVQPGGSLRLSCAASGFTFGSYAMTWVRQAPGKGLEWVSAISGSGGNTFYADSVKGRFTISRDNSKNTLYLQMNSLRAEDTAVYYCARVSPIAAPMDYWGQGTLVTVSS
VL: EIVLTQSPGTLSLSPGERATLSCRASQSLGSFYLAWYQQKPGQAPRLLIYGASSRATGIPDRFSGSGSGTDFTLTISRLEPEDFAVYYCQHYNYPPSFTFGQGTKVEIK
B2: L1.GDF/L3.KW/H3.AP (antibody, V domains shown)
VH: B1 VH
VL: B1 VL with L29V, S31D, Q90K, N93G, Y94W
B3: L1.LGF/L3.KW/H3.AP (antibody, V domains shown)
VH: B1 VH
VL: B1 VL with Q90K, N93G, Y94W
B4: L1.GDF/L3.NY/H3.AP (antibody, V domains shown)
VH: B1 VH
VL: B1 VL with L29V, S31D
B5: L1.LGF/L3.PY/H3.AP (antibody, V domains shown)
VH: B1 VH
VL: B1 VL with N93P
B6: L3.PY/L3.KF/H2.DY (antibody, V domains shown)
VH: B1 VH with S52D, G53Y, A104S, P105G
VL: B1 VL with L29V, G30S, F32S, Q90K, H91F, N93P
notes: IgG
B7: L3.PY/L3.KF/H3.YA (antibody, V domains shown)
VH: B1 VH with A103Y, P105G
VL: B1 VL with L29V, G30S, F32S, Q90K, H91F, N93P
notes: IgG
B8: L3.PY/L3.KY/H2.YQ (antibody, V domains shown)
VH: B1 VH with G53Y, S54Q, A104S, P105G
VL: B1 VL with L29V, G30S, F32S, Q90K, H91Y, N93P
notes: IgG
B9: L3.PY/L3.KF/H2.YQ (antibody, V domains shown)
VH: B1 VH with G53Y, S54Q, A104S, P105G
VL: B1 VL with L29V, G30S, F32S, Q90K, H91F, N93P
notes: IgG
B10: L3.PY/L3.KY/H3.YA (antibody, V domains shown)
VH: B1 VH with A103Y, P105G
VL: B1 VL with L29V, G30S, F32S, Q90K, H91Y, N93P
notes: IgG
B11: L3.PY/L3.KY/H2.DY (antibody, V domains shown)
VH: B1 VH with S52D, G53Y, A104S, P105G
VL: B1 VL with L29V, G30S, F32S, Q90K, H91Y, N93P
notes: IgG
B12: L3.PY/L3.KY/H3.TAQ (antibody, V domains shown)
VH: B1 VH with A97T, P105Q
VL: B1 VL with L29V, G30S, F32S, Q90K, H91Y, N93P
notes: IgG
B13: L3.PY/L3.KF/H2.QL (antibody, V domains shown)
VH: B1 VH with S63Q, V64L, A104S, P105G
VL: B1 VL with L29V, G30S, F32S, Q90K, H91F, N93P
notes: IgG
B14: L3.PY/L3.KF/H3.AE (antibody, V domains shown)
VH: B1 VH with P105E
VL: B1 VL with L29V, G30S, F32S, Q90K, H91F, N93P
notes: IgG
B15: L3.PY/L3.KY/H2.QL (antibody, V domains shown)
VH: B1 VH with S63Q, V64L, A104S, P105G
VL: B1 VL with L29V, G30S, F32S, Q90K, H91Y, N93P
notes: IgG
B16: L3.PY/L3.KY/H2.LT (antibody, V domains shown)
VH: B1 VH with G53L, S54T, A104S, P105G
VL: B1 VL with L29V, G30S, F32S, Q90K, H91Y, N93P
notes: IgG
B17: L3.PY/L3.KF/H3.TAQ (antibody, V domains shown)
VH: B1 VH with A97T, P105Q
VL: B1 VL with L29V, G30S, F32S, Q90K, H91F, N93P
notes: IgG
B18: L3.PY/L3.KF/H2.LT (antibody, V domains shown)
VH: B1 VH with G53L, S54T, A104S, P105G
VL: B1 VL with L29V, G30S, F32S, Q90K, H91F, N93P
notes: IgG
B19: L3.PY/L3.KY/H2.QR (antibody, V domains shown)
VH: B1 VH with S63Q, V64R, A104S, P105G
VL: B1 VL with L29V, G30S, F32S, Q90K, H91Y, N93P
notes: IgG
B20: L3.PY/L3.KY/H2.HA (antibody, V domains shown)
VH: B1 VH with G53H, S54A, A104S, P105G
VL: B1 VL with L29V, G30S, F32S, Q90K, H91Y, N93P
notes: IgG

One may read the Kd as the concentration at which binding is half-saturated. Usually koff stands for the first-order rate constant of dissociation. The term kon denotes the second-order rate constant of association.

Substitutions are numbered along the chain they refer to.

In the first assay the target is Human BCMA (human) (UniProt Q02223). The assay can be described thus: SPR, IgG immobilised, huBCMA analyte, 25 C.
B1 returned a Kd of 0.57 nM, a T½ of 21.7 min, a koff of 0.000533 s⁻¹ and a kon of 936000 M⁻¹ s⁻¹.

The molecule B2 came in with a Kd of 3.93 nM, a T½ of 2.51 min, a koff of 0.00461 s⁻¹ and a kon of 1.17e+06 M⁻¹ s⁻¹.

Molecule B3 registered a Kd of 2.44 nM, a T½ of 5.1 min, a koff of 0.00227 s⁻¹ and a kon of 928000 M⁻¹ s⁻¹.

B4: the Kd worked out at 1 nM, the T½ was found to be 8.21 min, the koff stood at 0.00141 s⁻¹ and the kon came out at 1.41e+06 M⁻¹ s⁻¹.

In turn, B5 came in with a Kd of 2.12 nM, a T½ of 11.9 min, a koff of 0.000969 s⁻¹ and a kon of 457000 M⁻¹ s⁻¹.

The target is the same in a further assay. Briefly: SPR, IgG immobilised, huBCMA analyte, 37 C.
B6 displayed a Kd of 0.67 nM, a T½ of 6.35 min, a koff of 0.00182 s⁻¹ and a kon of 2.74e+06 M⁻¹ s⁻¹.

Consider B7, for which the Kd came to 0.47 nM, the T½ came out at 7.85 min, the koff was 0.00147 s⁻¹ and the kon stood at 3.12e+06 M⁻¹ s⁻¹.

B8 registered a Kd of 0.77 nM, a T½ of 7.02 min, a koff of 0.00165 s⁻¹ and a kon of 2.14e+06 M⁻¹ s⁻¹.

Molecule B9 displayed a Kd of 1.14 nM, a T½ of 5.18 min, a koff of 0.00223 s⁻¹ and a kon of 1.96e+06 M⁻¹ s⁻¹.

For B10, the equilibrium dissociation constant (Kd) is 0.28 nM, the T½ amounted to 12.7 min, the koff worked out at 0.000912 s⁻¹ and the kon came out at 3.3e+06 M⁻¹ s⁻¹.

Turning to B11, the Kd stood at 0.2 nM, the T½ was 18 min, the koff stood at 0.000642 s⁻¹ and the kon was found to be 3.19e+06 M⁻¹ s⁻¹.

Take B12: the Kd is 0.23 nM, the T½ came out at 17.8 min, the off-rate constant (koff) was found to be 0.000649 s⁻¹ and the kon turned out to be 2.79e+06 M⁻¹ s⁻¹.

Consider B13, for which the Kd turned out to be 0.6 nM, the T½ is 9.26 min, the koff came out at 0.00125 s⁻¹ and the kon worked out at 2.07e+06 M⁻¹ s⁻¹.

B14: the Kd came to 0.51 nM, the T½ worked out at 7.44 min, the koff came to 0.00155 s⁻¹ and the kon is 3.07e+06 M⁻¹ s⁻¹.

For the molecule B15, the Kd was determined as 0.57 nM, the T½ amounted to 5.56 min, the koff was 0.00208 s⁻¹ and the on-rate constant (kon) was determined as 3.65e+06 M⁻¹ s⁻¹.

B16 came in with a Kd of 0.31 nM, a T½ of 12.8 min, a koff of 0.000906 s⁻¹ and a kon of 2.92e+06 M⁻¹ s⁻¹.

B17 displayed a Kd of 0.58 nM, a T½ of 7.12 min, a koff of 0.00162 s⁻¹ and a kon of 2.82e+06 M⁻¹ s⁻¹.

The molecule B18 gave a Kd of 0.69 nM, a T½ of 6.05 min, a koff of 0.00191 s⁻¹ and a kon of 2.75e+06 M⁻¹ s⁻¹.

On to B19, for which the Kd was determined as 0.34 nM, the T½ came out at 11.7 min, the koff turned out to be 0.00099 s⁻¹ and the kon was 2.95e+06 M⁻¹ s⁻¹.

B20 gave a Kd of 0.49 nM, a T½ of 7.1 min, a koff of 0.00163 s⁻¹ and a kon of 3.29e+06 M⁻¹ s⁻¹.

In another assay the target is T1, cynomolgus monkey BCMA (cynomolgus monkey, UniProt A0A2K5UD97 1-53).
T1 construct: Soluble analyte in SPR; construct not described; also called cyBCMA; Cyno BCMA
T1 sequence (A0A2K5UD97 entry or part of it): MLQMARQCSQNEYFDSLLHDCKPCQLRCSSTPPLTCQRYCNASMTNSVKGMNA
Briefly: SPR, IgG on chip, cyBCMA analyte, 37C. For orientation: SPR reads the build-up and loss of mass on a sensor chip optically.
Regarding B6, the affinity, expressed as Kd, was 1.77 nM; the “T½” value was 3.14 min; the koff came out at 0.00368 s⁻¹; the kon was 2.08e+06 M⁻¹ s⁻¹.

Consider B7, for which binding was put at a Kd of 3.78 nM, the “T½” value worked out at 1.45 min, the koff stood at 0.00796 s⁻¹ and the on-rate (kon) came out at 2.1e+06 M⁻¹ s⁻¹.

With B8, binding was characterised by a dissociation constant (Kd) of 2.04 nM, the “T½” value stood at 4.47 min, the koff was 0.00258 s⁻¹ and the kon was 1.27e+06 M⁻¹ s⁻¹.

Consider B9, for which the Kd amounted to 3.55 nM, the “T½” value is 2.3 min, the koff turned out to be 0.00501 s⁻¹ and the kon amounted to 1.41e+06 M⁻¹ s⁻¹.

In the case of B10, the Kd was 2.33 nM, the “T½” value is 2.7 min, the koff was found to be 0.00428 s⁻¹ and the kon came out at 1.84e+06 M⁻¹ s⁻¹.

Regarding B11, binding was put at a Kd of 1.24 nM, the “T½” value was determined as 4.75 min, the koff was found to be 0.00243 s⁻¹ and the kon is 1.96e+06 M⁻¹ s⁻¹.

With B12, binding was put at a Kd of 1.06 nM, the “T½” value was determined as 6.03 min, the koff turned out to be 0.00192 s⁻¹ and the kon is 1.81e+06 M⁻¹ s⁻¹.

Turning to B13, the Kd came out at 2.18 nM, the “T½” value is 3.73 min, the koff turned out to be 0.0031 s⁻¹ and the kon amounted to 1.42e+06 M⁻¹ s⁻¹.

Consider B14, for which the Kd stood at 3.05 nM, the “T½” value worked out at 2.05 min, the koff was determined as 0.00564 s⁻¹ and the kon turned out to be 1.85e+06 M⁻¹ s⁻¹.

On to B15, for which the Kd came out at 1.49 nM, the “T½” value was 2.83 min, the koff was 0.00409 s⁻¹ and the kon was found to be 2.75e+06 M⁻¹ s⁻¹.

Take B16: the Kd was found to be 1.27 nM, the “T½” value worked out at 4.98 min, the koff came out at 0.00232 s⁻¹ and the kon stood at 1.82e+06 M⁻¹ s⁻¹.

In the case of B17, the dissociation constant (Kd) was 0.95 nM, the “T½” value turned out to be 6.05 min, the koff was determined as 0.00191 s⁻¹ and the kon was 2.01e+06 M⁻¹ s⁻¹.

In the case of B18, the equilibrium dissociation constant (Kd) stood at 2.16 nM, the “T½” value was 2.8 min, the koff stood at 0.00413 s⁻¹ and the kon turned out to be 1.91e+06 M⁻¹ s⁻¹.

On to B19, for which the Kd turned out to be 3.78 nM, the “T½” value was determined as 1.49 min, the koff is 0.00774 s⁻¹ and the association rate constant (kon) amounted to 2.05e+06 M⁻¹ s⁻¹.

For the molecule B20, the Kd was 1.4 nM, the “T½” value is 3.63 min, the off-rate (koff) worked out at 0.00318 s⁻¹ and the kon is 2.28e+06 M⁻¹ s⁻¹.
